Data reported in the DeepSol protein solubility set.

test: soluble on expression in E. coli; label from the status in PepcDB or PDB records

**Q.** Which “soluble on expression in E. coli” value does the source give for “MAHHHHHHMEQFLNQVAASNKTVKCIKGALQIYDTYGEVFSLVHERRYEEAGIICTHFSDHIGQLFLGTTDGNCLVYYHDERSGDEQRSGVEERSGDDLYGDADRCGVPPVGRKKKGGVLEYLHKGVKRKRERASFYTNSEHIYNLDSLPKEIKITDAGDVLIKKDLINAKVKMNPKLSSFTANAYEKKRQVGMYSKYIVDANPSGKDPSSSQTNKGNEYEEEDIVEKLRKREQSKQGGDYFMNAYKYTQPSAIIDYSSGEEQEYSQLLKKPKCPQCGVKNCVCGFMRSGGRRAR” here?
**A.** Its value is “not soluble”.

**Q.** Which “soluble on expression in E. coli” value does the source give for “MSNSQAGPGASVRRVLAVIPARGGSKGVPAKNLAPVGGVPLVVRAVRECLAARLVTDVVVSTDDQAIAAAAREAGAEVVLRPAAIAGDTATSEAAVLHAMDAHEALHGAAVDVVLLVQCTSPFLVREDVDGVAGAVVEDGADTAVTVAPFHGFVWRDGADEPGGADGGHGVNHDKAYRPRRQDRPQDLLETGAAYAMAAPGFRKHRHRFFGRTDLVRTDPARVLEIDDPHDLARARALAPHFDTARPGALPTAADIDAVVLDFDGTQTDDRVLIDTDGREFVSVHRGDGLGIAALRRSGLTMLILSTEVNPVVAARARKLKLPVLHGIDRKDLALKQWCEEQGIAPERVLYVGNDVNDLPCFALVGWPVAVASAHDAVRGAARAVTTVPGGEGAVREIAAWLLGPSLDALGPASETTPTLTQSKLEHHHHHH” here?
**A.** The value was “soluble”.

**Q.** With “GSHMGRSQKVSQMTKVETRLEILDVTLRDGEQTRGVSFSTSEKLNIAKFLLQKLNVDRVEIASARVSKGELETVQKIMEWAATEQLTERIEILGFVDGNKTVDWIKDSGAKVLNLLTKGSLHHLEKQLGKTPKEFFTDVSFVIEYAIKSGLKINVYLEDWSNGFRNSPDYVKSLVEHLSKEHIERIFLPDTLGVLSPEETFQGVDSLIQKYPDIHFEFHGHNDYDLSVANSLQAIRAGVKGLHASINGLGERAGNTPLEALVTTIHDKSNSKTNINEIAITEASRLVEVFSGKRISANRPIVGEDVFTQTAGVHADGDKKGNLYANPILPERFGRKR” as the sequence, how does the “soluble on expression in E. coli” value read?
**A.** The value was “soluble”.

**Q.** Which “soluble on expression in E. coli” value does the source give for “MKRILLLGGITEALAIARKLGPEHIYSLAGVGRVPTDLACQLKVGGYGGAEGMAQYIRDQGVDLLLDATHPYAAQISRNAALAARIAGIPCWALRRTAWQPGPDDDWREVADWSALVTALAPFKRPLFTLGREPLQHLNEIPKHQFWTLRALDSYPGNDRCEVIGARGPFVLEDERQLFEQRNIDVLISKNSGSSSTEPKLDVARERGLPVLILKRPQLPDVDRILWSVDEVLGVLGLAETSPKPR” here?
**A.** Its value is “not soluble”.

**Q.** With “MSLTYYDDIRKVQDLHLPWEILTDINILIVGASGLIGRALVDTLMQLPDKTFHLYAGVRDLVYAQSCFMRYKDDESFTLIQCDVTALIPFDIDFHYIIHAASYAGPAAFHNDPVGVMKANILGVDNLFSYGEQHNLRRLLYVSSGEVYGEGNGIPFREEDSGSLDWASLRACYPAAKRTAETLCIAYAAQFQIETVIARPCHIYGPFYTSKDDRAYAQFIRNVLAGENIILRSSGLQQRSWCYVVDCVFALLYVLLKGKTKNAYNIADVRSNVSIREFAEMIALKSEREVIFDLPDNTGKNKPIISQAIFNTEKINKIGWFPQWKLEEGVSHTLNTLISVDGTYEGHITITTDPNSSSVDKLAAALEHHHHHH” as the sequence, how does the “soluble on expression in E. coli” value read?
**A.** The value was “soluble”.

**Q.** With “MLERHDRLETLRKLKELQERIAELAYLLTGEEPAAWTPRVDLLETEEHYVLLVDLPGVRPEDLELLEEGQRVTLAGVRHPLPGTYLLEERPMGTFRRTLDLPGPIEEGTAQATLRNGVLEVRFRKRPATALPLKEA” as the sequence, how does the “soluble on expression in E. coli” value read?
**A.** The value was “soluble”.

**Q.** For “MSSENAQLKKDLIKAVLSPLFPTATEGGENMDSNLKALLDAAIDQKVDESETVTAESILDPSLPARWIFARITPGTTISIVTDSGDMIGPVVFVAFDQVHGIVFVTQESSVTPAGQATTLIDVDKVESVTFFSLEHHHHHH”, which “soluble on expression in E. coli” value is on record?
**A.** Its value is “soluble”.

**Q.** Which “soluble on expression in E. coli” value does the source give for “MAKQKDNYLDYVPKHNSLFECRENKKGHVEVKVHNKGIFNRIAQLIARKPRYSYIELDDFGTFVWHSIDGVRSIYDIGQLVKEHFGDKAEPLYERLCYFIKLLHKNQFIVYMNKINKQINK” here?
**A.** The value was “not soluble”.

**Q.** Which “soluble on expression in E. coli” value does the source give for “HQYFFAKLQEQQNRYAKYGETAYNLEPNIKNGPGGLRDLQILLSISKRHFKIKKLAEGIGYGFITDKEYEELKYCQNFLWRVRFALHMLAGKPEERLSFDYQVKLAQFFGYQDQSHILAIEQFMKDYFKVIKRNRELNEMLLQWFNETIVYHQKQKIIRLDDEFQLSNRFIEVRNNRVFKQNPQSILKLFYWLVKRPDIEGVRASTIRLI” here?
**A.** Its value is “not soluble”.

**Q.** For “MGSDKIHHHHHHMLASSDLPYRKMITWAGFYQDYYLVDINTGRKLPLLTQQPSDSDPSLSGDGKFVVYYQQGHVYLYDIAQGRRTNLTQSLKVSFADEDHDYPSNAPGYGFGPWLKDDAGILVYDKFDVWQFNTASKTGFALTAGQGRAQKIQYRLEGLVDNPDEPTTLAYNATVLLHGYSDKTKADGFYQATLGEAGVKTLMEGEYKLTVLGRSKDTDTLVFSKERFDLFPDLYTASYQAPQQAVKQTDLDKQRQAFNWSQAELVHWTNGDGKPLDGVLIKPTNYQAGERYPVLVYYYELMTDRLHAFPQMKVNHRPNFAWYVNNGYALFLPDIRFDIGYPGASSVQTLTSGVQKLIDMGVADANAIGLQGHSWSGYQTAFAITQTKMFKAAVAGAPVANMTSAYNGIRHGTGIARQFQYETGQSRIGASLFAAPQKYIENSPVFYADRIKTPLMIMFGDKDDAVPWEQGVEMYLAMRRAGKDVVFLQYEDEPHHLKKYPNKLDYSIRMMEYFDHYLKGKPAPAWLSQGEAYVEYKADDE”, which “soluble on expression in E. coli” value is on record?
**A.** Its value is “not soluble”.

**Q.** Which “soluble on expression in E. coli” value does the source give for “MRLISKPVLCNYYVTYRCNATCGFCDIWEKPSPYVTPEAVEQNMRDLKKLGVKVIDFTGGEPLLHREMDTLLRIAKKYGMITTLTTNALLYPKWAERLKGLIDMLHFSLDSPDKAEHDTLRGVACFDFVLESIEKAKALGERPDIIFTVFNHNIHLIKRMYEEICLPNNLILILNPSFEYNQVEVGTGLQKKELDILSYWAKQKNIYINEAFIQLRLDGGNHTADPVCKAASSTLVISPENKLVLPCYHLGTDSFQIENNLFDLYHSKEVRAIIAQEGKLDACEGCTINCYMQPSFAVEINKYWFKAMPSTLKYSREKGTWKQLFR” here?
**A.** Its value is “not soluble”.

**Q.** With “MGHHHHHHSHMKYYRRALYDKFVHFYLVISDDGSSEAQLRGKMGGLVRKARKKISPDWPKEEQIHQLLQLFYGDWGFHCDPEDYFYARNLYLPYVFEHRQGMPVTLGAMVFYLAEALDLPIYPVNFPTQLILRAEVRDEVAFIDPWDGTYISQEKLQQLYEGAFGFGAKIQPEELDRADLSLLYSRFEQLAKNALIREEHNDMAYHYIKNLMITDAENPYHIRDRGLVLAQMGAYPSALKDLEFFVEHCPKDPTAAFIRTQLLELKGEINKDTFPLH” as the sequence, how does the “soluble on expression in E. coli” value read?
**A.** The value was “soluble”.

**Q.** With “MSLDTMWFRNIDNFINEINRFALLGTVTNKNGWLINNGIYYAGRLGKLHSTPTKGQQVVTDAMRIYPYLGEQYFVAAEQITTNYGGIDANGKTVNLDQIREEGKKKYLPKTYTFDDGAIVFKAGDKVSEEKIKRLYWAAKEVRSQFYRTVGSDKPLEKWTCEGHHHHHH” as the sequence, how does the “soluble on expression in E. coli” value read?
**A.** Its value is “not soluble”.

**Q.** With “MIKIYNRKTKAYDVEQVAGLKYINWSYASPIGKSFLELFIKKKMFSKLYGNFCDSSLSKKKIKAFIDEFNIDMSLCNKNIDEFENFNDFFARTLTPEARPIDYSENILISPGDGRLSAFENIDLDKVVQIKGYTYSLKELIDDPKVAEEFEGGTCLILRLCPTDYHRFHFVDSGTCSESKKISGFYYSVNPIALNNVSELFCKNKREWSIFNSDNFGEILHVEVGATCVGTILQTYSPEKRVKKGEEKGYFKFGGSTTILFFKKDTIKIDSDIVEQTKLGFETKVNMGETIGHKLEHHHHHH” as the sequence, how does the “soluble on expression in E. coli” value read?
**A.** The value was “soluble”.

**Q.** Which “soluble on expression in E. coli” value does the source give for “MGSDKIHHHHHHNKIPTTMAFRTVTDVDNAVNGLYDLMSGSGYYGAAMFAYGDMKGDDMQSSEESGVCNTCYMFNHRPNSLNAGSLWGRPFYILREAWNILNAIAEGKIESGDEKKLNALKGETMAVIALCQFDLTRCFGYPYTKDKGASLGAPLIDHLVGTYENPPRSTVAQAYDFIIETLEEAVTLMSEEKNNGRMNKYAARALLARIYLYHDDNRKAFDLADQLIKDADTSGSYALYPHEKYVAAWSVEAKFGSESFFEIANSVDDTPGRDSWGYLLNWYGYQKGFVTQKYAEQMLADPGDVRGHLLEENKYAGKTVWWLYKLRGTDLKTAPLECNNVVLRLSEVYLIAAEAGCKLGGDAAVQGLGYLNEIVKRGNPDNEVTMADYTLDRVLDERSKELVGEGHRFFDLLRNGKTIVRKGGYHLPSVDEEVDWDFYKCVLPIPEDQFIFSPEMEQNPGYPKN” here?
**A.** Its value is “not soluble”.

**Q.** With “MSEMNAVYNVKQYILNLIMQNKLEYGDQLPSNLSIARELNVKTDDVYEAIQALITEQVIKDNFEEGTSVKSLPPFFYPLNELISIGQMIKNAGFECGTEYLNFDEQPATMLDANLLSVEEGYPVTIIERLRTADGEPVVYCLDKIAKKELTCTEYQMSNGSILSAIKEQSNHNICYADTEIEAVNYEPRISEVLNASPHEGLILLKITHYNELDEPILYSLNYMKNSLVQFKITRKI” as the sequence, how does the “soluble on expression in E. coli” value read?
**A.** Its value is “not soluble”.

**Q.** For “MYQLSRTQILPVPLTVAWDFFSDPRNLAAITPPDMGFVITSPVPERTHAGMVVTYAVSPFGGLRLPWVTEITHCAEPSLFVDEQRFGPYRFWHHQHHFLEVSGGVEMRDIVHYILPFGIIGRLSAPVVAKRLKAIFDYRRDTLAVRFAALSRGALEHHHHHH”, which “soluble on expression in E. coli” value is on record?
**A.** Its value is “not soluble”.

**Q.** Which “soluble on expression in E. coli” value does the source give for “MGMTRNLLAAGLAAVLALPALAAELVMVEQHGCEWCARWNEEIAPIYPKTAEGAFAPLRRVDLRAIPADLETARRVVFTPTFLIVEDGRELARLEGYPGEDFFWPLLEQLLVDHAGFVPKKPGSS” here?
**A.** Its value is “not soluble”.

**Q.** For “MGSDKIHHHHHHMKFSINRQKTIEIIGEYSNILKDNPVKPSLAGLFIQAKNNQVVFKGANTEIELIRYANCEIESEGQVLIKPALLLEYIKLLEGENINFEKKDGYLIVNNAEFSILDDNTYPELTEIIPIVIASENTVKFTMSLEKVKFLTNSSASTDTLFNSIKMIFKDNVLELVSTDSFRLIYMKKELNNMINKDVLVPGDSIAVLYKIFKDLDEEFSLAASDDKLIVTWKDAYFTCKLLSLSFPDFRPLINNTNHDKRFEFNRDELNLALKKVISVTKNSSDSKNVATFNFKGNQLLISGVSANAKINQKVNMIKTGEDLKLGMNCKYIKDFIDNVDKNIIIDATNSSSMLRFMEEGNENYIYLIMPVNIRV”, which “soluble on expression in E. coli” value is on record?
**A.** The value was “not soluble”.

**Q.** Which “soluble on expression in E. coli” value does the source give for “MEFTGKIIAILPPRGGVSKTSGNEWKSQEFVIENHDQYPRKMCFDVFGADKIEQFNIQMGEELTVSFDVDARQWNDRWFNSIRAWKVERVGAGAPMTPGAPVPPPAPSATPDFTMGDAKDDLPF” here?
**A.** Its value is “not soluble”.

**Q.** For “MSISSIPSSPSISGSSTSSTAPNISFCYTWTTKLKTRKTADGEATILSISPKFATVHQLISFQWNIRIHATSEMNEEDEEVDYVAVDLYLVDGPVNEVNVMAEVGALEKTSTATLGSLPAGQKEAKTIKMQKGSGCEITDADRECVSKYLKENTRLFEPSTYLDAISPTPRASFLTANYNARVNSKVWKRRSRKRNGRIERRVLSDKEKTKYESKVQMILDEEREKLCDKREMLKEDDGGSRRASLISQFRENQHESVLDDHMFKRILVSCCESCEQRRLSFMCDSRTEDDSEGEDCEDNEEDDGEGGSDDEEDDGEEPHFECDKSDKEHVHDMLANLYFNKVVLPEMEYVEDFVDFLIDAELNDLPVLKRACERYLCSELNSKKDIGTCLLLDLLFNSIVFNLPVMKSMTLTELANRTHEFVDADTLLDQEEFKNLDKRMRTLADRNLVELIEQCVTFRDQKARVRVLPTAESFDISFDLTNQ”, which “soluble on expression in E. coli” value is on record?
**A.** The value was “not soluble”.

**Q.** For “QVQLQQSGPGLVKPSQTLSLTCAISGDSVSSNSAAWNWIRQSPSRGLEWLGRTYYRSKWFNDYAVSVQSRITINPDTSKNQFSLQLNSVTPEDTAVYYCARGIVFSYAMDVWGQGTTVTVSSASTKGPSVFPLAPSSKSTSGGTAALGCLVKDYFPEPVTVSWNSGALTSGVHTFPAVLQSSGLYSLSSVVTVPSSSLGTQTYICNVNHKPSNTKVDKKVEPKSCAADEVDHHHHHH”, which “soluble on expression in E. coli” value is on record?
**A.** The value was “soluble”.
